Experimental data as given in patent US20150118747A1, “ELECTROSTRETCHED POLYMER MICROFIBERS FOR MICROVASCULATURE DEVELOPMENT” (The Johns Hopkins University, priority 2013, published 2015).

B1: plasmin: plasmin from human plasma (Athens Research and Technology), enzyme that degrades fibrin (protein, UniProt P00747 20-580; P00747 581-810, looked up)
Plasmin heavy chain A: EPLDDYVNTQGASLFSVTKKQLGAGSIEECAAKCEEDEEFTCRAFQYHSKEQQCVIMAENRKSSIIIRMRDVVLFEKKVYLSECKTGNGKNYRGTMSKTKNGITCQKWSSTSPHRPRFSPATHPSEGLEENYCRNPDNDPQGPWCYTTDPEKRYDYCDILECEEECMHCSGENYDGKISKTMSGLECQAWDSQSPHAHGYIPSKFPNKNLKKNYCRNPDRELRPWCFTTDPNKRWELCDIPRCTTPPPSSGPTYQCLKGTGENYRGNVAVTVSGHTCQHWSAQTPHTHNRTPENFPCKNLDENYCRNPDGKRAPWCHTTNSQVRWEYCKIPSCDSSPVSTEQLAPTAPPELTPVVQDCYHGDGQSYRGTSSTTTTGKKCQSWSSMTPHRHQKTPENYPNAGLTMNYCRNPDADKGPWCFTTDPSVRWEYCNLKKCSGTEASVVAPPPVVLLPDVETPSEEDCMFGNGKGYRGKRATTVTGTPCQDWAAQEPHRHSIFTPETNPRAGLEKNYCRNPDGDVGGPWCYTTNPRKLYDYCDVPQCAAPSFDCGKPQVEPKKCPGR
Plasmin light chain B: VVGGCVAHPHSWPWQVSLRTRFGMHFCGGTLISPEWVLTAAHCLEKSPRPSSYKVILGAHQEVNLEPHVQEIEVSRLFLEPTRKDIALLKLSSPAVITDKVIPACLPSPNYVVADRTECFITGWGETQGTFGAGLLKEAQLPVIENKVCNRYEFLNGRVQSTELCAGHLAGGTDSCQGDSGGPLVCFEKDKYILQGVTSWGLGCARPNKPGVYVRVSRFVTWIEGVMRNN
modifications: plasmin
notes: plasmin from human plasma (Athens Research and Technology), enzyme that degrades fibrin

Tests used:
ECFCs [1] = assay: Actin and microtubule disruption studies, ECFCs on fibrin microfibers; assay type: cell-based, Human; settings: for actin and microtubule organization, respectively / wrapping organization of the deposited ECM molecules compared to control cultures: ECFCs seeded on nanopatterned fibrin microfibers; for average angle of ECM orientation or variance of all angles, vs no drug: drug added 24 h after ECFC seeding on fibrin microfibers, 24 and 48 hrs of treatment
Protocol: The cell areas and perimeters were measured by fitting an ellipse to each cell using the LSM 510 software. Cytoskeletal alignment angle was calculated by measuring the angle between the long axis of each ellipse and the longitudinal axis of the microfiber, found by drawing a line at the edges of the microfiber in its image projection. ECM angle of orientation was measured using the LSM 510 software by drawing a line following the ECM deposition and finding the angle between the line and the longitudinal axis of the microfiber. Graphs were plotted with 5-95% confidence intervals. Unpaired two-tailed Welch-corrected t-tests were performed where appropriate (GraphPad Prism® 5.01, GraphPad Software, San Diego, Calif.). Significance levels were determined between samples examined and were set at *p<0.05, **p<0.01, and ***p<0.001.
Cytochalasin D or nocodazole were dissolved in DMSO (Table 1). ECFCs were cultured on Petri dishes (control) or fibrin microfibers in ECFC media with 50 ng/mL of VEGF (Pierce, Rockford, Ill., USA) supplemented with either […] cytochalasin D or […] nocodazole, from either day 0 or day 1 after seeding. F-actin or a-tubulin organization and ECM deposition was analyzed after 1, 2, or 3 days of treatment. Final concentration of DMSO in cell culture medium was kept at 0.1% (v/v). Controls were treated with DMSO alone at the same concentration.

fibrin microfibers = assay: Plasmin treatment: degradation of fibrin microfibers without cells; assay type: biochemical; settings: serum-free media
Protocol: (§1) Fibrin microfibers with or without cells were treated with 15, 1, 0.25, and 0.1 CU/mL plasmin from human plasma (Athens Research and Technology, Athens, Ga.) in DMEM (Life Technologies, Grand Island, N.Y.) for 1, 6, 12, and 24 hrs respectively in a humidified incubator at 37° C. in a 5% CO2 atmosphere. Samples were imaged immediately after treatment.
The fibrin microfiber core was degraded after endothelial cell (EC) layer formation while maintaining both cellular viability and intact ECM organization. Fibrin microfibers without cells were treated with different concentrations of plasmin.

ECFCs [2] = assay: Live/Dead assay of ECFCs after plasmin treatment; assay type: cell-based; settings: for cell viability: confluent ECFCs, data not shown; for live cells: confluent ECFCs in 2D, serum-free
Protocol: as §1
ECFCs cultured in 2D and treated with plasmin were incubated with 2 μM calcein AM and 4 μM ethidium homodimer (Invitrogen) in PBS for 30 min at 37° C. and 5% CO2. Samples were imaged immediately after and the number of live and dead cells was counted using ImageJ (NIH, Bethesda, Md.).

Molecule | actin and microtubule organization, respectively (ECFCs [1]) | wrapping organization of the deposited ECM molecules compared to control cultures (ECFCs [1]) | average angle of ECM orientation or variance of all angles, vs no drug (ECFCs [1]) | time in which plasmin degraded the microfibers (fibrin microfibers; 0.1 CU/mL plasmin) [h] | time in which plasmin degraded the microfibers (fibrin microfibers; 0.25 CU/mL plasmin) [h] | time in which plasmin degraded the microfibers (fibrin microfibers; 1 CU/mL plasmin) [h] | time in which plasmin degraded the microfibers (fibrin microfibers; 15 CU/mL plasmin) | cell viability (ECFCs [2]; 1 hr treatment (15 CU/mL plasmin)) | cell viability (ECFCs [2]; 6 hr treatment (1 CU/mL plasmin)) | live cells (ECFCs [2]; 12 hr treatment (0.25 CU/mL plasmin)) [%] | live cells (ECFCs [2]; 24 hr treatment (0.1 CU/mL plasmin)) [%]
C=C1[C@@H](C)[C@H]2[C@H](Cc3ccccc3)NC(=O)[C@]23[C@H](OC(C)=O)/C=C/[C@@](C)(O)C(=O)[C@@H](C)C/C=C/[C@H]3[C@@H]1O [Cytochalasin D] | effectively altered | did not alter | No difference |  |  |  |  |  |  |  | 
COC(=O)Nc1nc2ccc(C(=O)c3cccs3)cc2[nH]1 [nocodazole] | effectively altered | did not alter | no difference |  |  |  |  |  |  |  | 
B1 |  |  |  | ~24 | ~12 | ~6 | about 1 hrs | poor cell viability | poor cell viability | 80.6±4.3 | 65.2±1.8
